Assay results as given in patent US20240084003A1 (SIMCERE ZAIMING PHARMACEUTICAL, published 2024).

T1: human CD22-ECD-His protein (human, UniProt P20273 20-687)
T1 construct: Made in house in HEK293E; also called hCD22-ECD-His; recombinant human CD22-ECD His protein; not shown: His tag
T1 sequence: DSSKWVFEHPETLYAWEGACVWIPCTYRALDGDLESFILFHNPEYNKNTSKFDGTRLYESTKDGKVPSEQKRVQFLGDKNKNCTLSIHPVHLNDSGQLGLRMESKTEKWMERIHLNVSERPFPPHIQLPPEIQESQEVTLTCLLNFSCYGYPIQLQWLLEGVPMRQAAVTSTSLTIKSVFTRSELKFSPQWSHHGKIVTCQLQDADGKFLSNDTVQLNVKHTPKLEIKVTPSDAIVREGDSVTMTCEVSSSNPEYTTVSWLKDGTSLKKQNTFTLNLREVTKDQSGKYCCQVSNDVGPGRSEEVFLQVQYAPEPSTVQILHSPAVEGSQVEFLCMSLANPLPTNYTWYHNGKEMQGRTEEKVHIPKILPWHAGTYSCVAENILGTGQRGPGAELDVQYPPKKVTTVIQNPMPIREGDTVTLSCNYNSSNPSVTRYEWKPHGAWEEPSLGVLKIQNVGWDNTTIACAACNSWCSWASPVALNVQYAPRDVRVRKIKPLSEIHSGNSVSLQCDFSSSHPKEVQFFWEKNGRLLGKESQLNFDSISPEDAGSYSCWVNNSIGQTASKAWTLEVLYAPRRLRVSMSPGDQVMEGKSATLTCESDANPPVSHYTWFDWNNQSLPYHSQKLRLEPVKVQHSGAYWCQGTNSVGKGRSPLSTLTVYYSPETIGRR

T2: human CD22 domain5-7-His (human, UniProt P20273 414-687)
T2 construct: also called hCD22 domain5-7-His; not shown: His tag
T2 sequence: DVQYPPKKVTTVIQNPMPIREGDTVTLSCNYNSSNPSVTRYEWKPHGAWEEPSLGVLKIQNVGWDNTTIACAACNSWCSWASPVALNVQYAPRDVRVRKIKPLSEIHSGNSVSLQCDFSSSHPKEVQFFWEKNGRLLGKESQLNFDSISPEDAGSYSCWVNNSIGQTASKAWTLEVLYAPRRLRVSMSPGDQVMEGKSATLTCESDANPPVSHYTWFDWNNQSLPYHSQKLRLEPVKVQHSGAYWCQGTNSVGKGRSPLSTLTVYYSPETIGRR

T3: monkey CD22 protein (ACROBiosystems, SI2-R52Ha) (monkey (rhesus monkey in paragraph 148), UniProt H9G1X2 18-686)
T3 construct: extracellular domain; also called monkey CD22-ECD; monkey CD22-ECD-His
T3 sequence: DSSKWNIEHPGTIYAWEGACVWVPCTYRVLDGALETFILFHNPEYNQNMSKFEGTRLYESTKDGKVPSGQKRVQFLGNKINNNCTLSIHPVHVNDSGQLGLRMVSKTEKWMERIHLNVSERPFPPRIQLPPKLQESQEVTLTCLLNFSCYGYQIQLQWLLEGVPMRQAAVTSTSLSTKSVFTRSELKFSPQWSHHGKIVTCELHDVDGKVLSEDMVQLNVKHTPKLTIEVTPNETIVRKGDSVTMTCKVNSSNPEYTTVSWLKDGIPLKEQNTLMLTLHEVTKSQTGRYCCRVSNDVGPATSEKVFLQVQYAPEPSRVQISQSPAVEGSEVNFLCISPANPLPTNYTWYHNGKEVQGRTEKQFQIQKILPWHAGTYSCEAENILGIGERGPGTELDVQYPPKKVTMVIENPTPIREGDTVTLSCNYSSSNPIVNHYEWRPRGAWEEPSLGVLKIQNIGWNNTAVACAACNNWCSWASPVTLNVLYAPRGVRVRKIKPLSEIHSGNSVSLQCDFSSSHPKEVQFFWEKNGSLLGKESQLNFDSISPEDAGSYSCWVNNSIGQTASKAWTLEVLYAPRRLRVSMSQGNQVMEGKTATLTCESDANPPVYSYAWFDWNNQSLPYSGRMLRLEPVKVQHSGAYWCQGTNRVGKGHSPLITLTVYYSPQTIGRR

T4: murine CD22 protein (ACROBiosystems, SI2-M52Ha) (murine, UniProt P35329 22-708)
T4 construct: extracellular domain; also called murine CD22-ECD; murine CD22-ECD-His
T4 sequence (looked up): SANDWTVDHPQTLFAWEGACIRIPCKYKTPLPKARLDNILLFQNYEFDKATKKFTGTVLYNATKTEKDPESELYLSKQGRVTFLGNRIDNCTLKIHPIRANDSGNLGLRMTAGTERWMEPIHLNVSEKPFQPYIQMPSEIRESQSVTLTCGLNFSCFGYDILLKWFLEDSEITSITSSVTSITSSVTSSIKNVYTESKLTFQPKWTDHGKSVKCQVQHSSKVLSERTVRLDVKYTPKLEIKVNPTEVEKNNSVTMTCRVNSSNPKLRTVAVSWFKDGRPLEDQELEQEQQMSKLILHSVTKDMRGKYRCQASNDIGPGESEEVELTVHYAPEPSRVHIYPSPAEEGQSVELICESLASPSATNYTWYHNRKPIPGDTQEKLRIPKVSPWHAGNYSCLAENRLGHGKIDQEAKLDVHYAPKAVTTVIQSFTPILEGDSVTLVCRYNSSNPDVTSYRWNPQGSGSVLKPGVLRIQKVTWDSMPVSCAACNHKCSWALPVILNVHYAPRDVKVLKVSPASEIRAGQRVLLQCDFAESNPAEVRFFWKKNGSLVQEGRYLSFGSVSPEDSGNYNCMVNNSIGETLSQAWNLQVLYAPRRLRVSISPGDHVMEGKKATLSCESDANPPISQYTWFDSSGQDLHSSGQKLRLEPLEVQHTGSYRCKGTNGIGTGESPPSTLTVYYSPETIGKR


Legend:
[1] = target: T1, human CD22-ECD-His protein; experiment: ELISA, Ab 0.00001 nM
Outline: (§1)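 Human CD22-ECD-His is adsorbed overnight at 4 °C (2 μg/mL) and blocked with 2% BSA in PBS for 2 h. Chimeric antibody binding proceeds 2 h at 37 °C, followed by HRP-labeled secondary antibody under identical conditions and TMB detection.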

[2] = target: T1, human CD22-ECD-His protein; experiment: ELISA, human CD22-ECD-His coated
Outline: as §1

human CD22 domain5-7-His = target: T2, human CD22 domain5-7-His; experiment: ELISA, human CD22 domain5-7-His coated
[3] = target: T1, human CD22-ECD-His protein; experiment: ELISA, Ab 0.001 nM
Outline: as §1

[4] = target: T1, human CD22-ECD-His protein; experiment: ELISA, Ab 0.01 nM
Outline: as §1

[5] = target: T3, monkey CD22 protein (ACROBiosystems, …); experiment: ELISA, monkey CD22-ECD-His coated
Protocol: In order to detect the binding activity of CD22 human-murine chimeric antibodies to CD22 protein, the purified human CD22-ECD-His protein obtained in Example 2 was diluted with PBS to a final concentration of 2 μg/mL, and then added to 96-well ELISA plate at 100 μl/well. The plate was sealed with plastic film and incubated overnight at 4° C., the plate was washed 2 times with PBS the next day, and then a blocking solution [PBS+2% (w/w) BSA] was added for blocking at room temperature for 2 hours. […] After incubation at 37° C. for 2 hours, the plate was washed 3 times with PBS. HRP (horseradish peroxidase)-labeled secondary antibody (purchased from Sigma, catalog number: A0170) was added, and incubated at 37° C. for 2 hours, and the plate was washed 5 times with PBS. TMB substrate was added at 50 μl/well, and incubated at room temperature for 30 minutes, then a stop solution (1.0 N HCl) was added at 50 μl/well.
In order to detect the species cross-binding activity of the chimeric antibodies, an ELISA plate was coated with commercial murine CD22 protein (ACROBiosystems, catalog number: SI2-M52Ha) and monkey CD22 protein (ACROBiosystems, catalog number: SI2-R52Ha), respectively, and the ELISA detection was performed according to the method in Example 5.1.

[6] = target: T4, murine CD22 protein (ACROBiosystems, …); experiment: ELISA, murine CD22-ECD-His coated
Outline: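 Plates were coated overnight at 4° C with 2 μg/mL CD22 protein in PBS and blocked with PBS + 2% BSA. Chimeric antibodies were incubated for 2 h at 37° C, then HRP-labelled secondary for 2 h at 37° C. Bound antibody was read by TMB colour development (30 min, RT) stopped with 1.0 N HCl.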

[7] = target: T1, human CD22-ECD-His protein; experiment: ELISA, Ab 100.00 nM
Outline: as §1

[8] = target: T1, human CD22-ECD-His protein; experiment: ELISA, Ab 0.0001 nM
Outline: as §1

[9] = target: T1, human CD22-ECD-His protein; experiment: ELISA, Ab 0.10 nM
Outline: as §1

[10] = target: T1, human CD22-ECD-His protein; experiment: ELISA, Ab 10.00 nM
Outline: as §1

Row | OD450 [1] | EC50 (read off the curve) [2] | binding result (human CD22 domain5-7-His) | OD450 [3] | OD450 [4] | EC50 (read off the curve) [5] | binding result [6] | OD450 [7] | OD450 [8] | OD450 [9] | OD450 [10] | Binder
1 | 0.18 OD450 | ~0.03 nM | no binding (tested: 100 nM) | 0.65 OD450 | 1.52 OD450 | 0.1 to 1 nM | no binding (tested: 100 nM) | 2.32 OD450 | 0.32 OD450 | 1.93 OD450 | 1.97 OD450 | F2.173.9 (antibody, human IgG1, lambda, V domains shown, Human-murine chimeric IgG1, lambda) VH: EVQLVESGGDLVKPGESLKLSCEASGFTFSNYAMSWVRQTPDRRLEWVATISSIGSFTYYSDSVKGRFTISRDNVKSTLHLQMNNLKSGDTAIYFCARLGVYFDSWGQGTTLTVSS VL: QLVLTQSSSASFSLGASAKLTCTLSSQHSTYTIEWYQQQPHKPPKFVMEIKKDGSHYTGDGIPDRFSGSSSGADRYLSISNIQPEDETIYICGVSDMIKDQFVYVFGGGTKVTVLG
2 | 0.12 OD450 | ~0.02 nM | no binding (tested: 100 nM) | 0.86 OD450 | 2.24 OD450 | ~0.02 nM | no binding (tested: 100 nM) | 3.07 OD450 | 0.21 OD450 | 2.58 OD450 | 2.56 OD450 | F1.250.16 (antibody, human IgG1, kappa, V domains shown, Human-murine chimeric IgG1, kappa) VH: QVQLQQSGAEQVKPGASVKMSCKASGYTFTTYPIEWMKQNHGESLDWIGNIHPYNDDTEYNEKFKGKATLTVEKSSNTVFLELSRLTSDDSAVYYCVRGDYYNSRYWYFDVWGTGTTVTVSS VL: DIVMTQSQKFMSTTVGDRVSITCKAGQNVRTAVAWYQQKPGQSPKLLIYSASTRYIGVPERFTGSGSGTDFTLTITNMQSEDLADYFCQQYSSFPLTFGTGTKLELKR
3 | 0.1 OD450 | ~0.03 nM | no binding (tested: 100 nM) | 0.74 OD450 | 2.11 OD450 | ~0.03 nM | no binding (tested: 100 nM) | 2.87 OD450 | 0.17 OD450 | 2.53 OD450 | 2.51 OD450 | F1.172.13 (antibody, human IgG1, kappa, V domains shown, Human-murine chimeric IgG1, kappa) VH: QVTLKESGPGILQSSQTLSLTCSFSGFSLSTSGMGVSWIRQPSGKGLEWLAHIYWDDDKRYNPSLKSRLTISKDTSRNQVFLKITSVDTADTATYYCARAPPPNWDEYYFDYWGQGTTLTVSS VL: DIQMTQSPASLSASVGETVTITCRASGNIHNSLAWYQQKQGKSPQLLVHNAKTLADGVPSRFSGSGSGTQYSLKINSLQPEDFGSYYCQHFWSTPPFGGGTKLEIKR
